# Experimental data: the DeepSol protein solubility set
# Assay: soluble on expression in E. coli; label from the status in PepcDB or PDB records
row,Sequence,soluble on expression in E. coli
1,MPPEMEGFLYLKSDGRKSWKKHYFVLRPSGLPPEMEGFLYLKSDGRKSWKKHYFVLRPSGLMYHDRRRTGFRQYETYMKQKQSADWQLDELLEELEALETQLNSSNGGDQLLLGVSGIPASSSRENVKSISTLPPPPPALSYHQTPQQPQLLHHHNNHLGYQNGIHQITSINSAASSCSSPDGDSAFGDSSSTESSNNRCRNSAFSSNDSCRDSLNTPSPTQVSPRNGELNAEEAKAQKIRQALEKMKEAKVTKIFVKFFVEDGEALQLLIDERWTVADTLKQLAEKNHIALMEDHCIVEEYPELYIKRVYEDHEKVVENIQMWVQDSPNKLYFMRRPDKYAFISRPELYLLTPKTSDHMEIPSGDQWTIDVKQKFVSEYFHREPVVYYAPKSKKPTTKDLTCLMNLHSNQVYTGIGWEKKYKSPTPWCISIKLTALQMKRSQFIKYICAEDEMTFKKWLVALRIAKNGAELLENYERACQIRRETLGPASSMSAASSSTAISEVPHSLSHHQRTPSVASSIQLSSHMMNNPTHPLSVNVRNQSPASFSVNSCQQSHPSRTSAKLEIQYDEQPTGTIKRAPLDVLRRVSRASTSSPTIPQEESDSDEEFPAPPPVASVMRMPPPVTPPKPCTPLTSKKAPPPPPKRSDTTKLQSASPMAPAKNDLEAALARRREKMATMEC,not soluble
2,MSLNEESYLVNRGKGVVRYDVVQVPSNSPIEDDHAEKIVEVPASTSAANEGQSSSDWMFWAVFDGHSGWTTSAKLRNVLISYVARELNATYKSASSDPSLVLPSSEAVDAAIKQGFVRLDNDIVHGSVNQVFKSNSRRAAAELLAPALSGSCALLAFYDSQTRDLKVACAGDSRAVLGRRSENGKWTATPLSEDQTGGTPSEMKRLREEHPGEPNVVRNGRILGQLEPSRSFGDAFYKWSKETQEKIKRQFFGRTPHPLLKTPPYVTAEPIITTTKVDPSQGDFLVLATDGLWEMLSNEEVVGLVGQWIEEQKAAAGAGTGNKSWVRSLFGSQPTEGHHHHHH,soluble
3,FVNVGERTNVTGSKMFARLVREEKYDEALAVARQQVENGAQIIDVNMDEAMLDSVACMHRFLNLIASEPDIARVPVMIDSSKWEVIETGLKCVQGKAVVNSISMKEGEEPFRHHARLCRRYGAAMVVMAFDEQGQADSLERRKEICGRAYRILVEEEGFPPEDIIFDPNVFAVATGIDEHNHYAVDFIEGARWIRANLPHARISGGISNVSFSFRGNEPMREAIHTVFLYYAIEAGLTMGIVNAGQLGVYADLAPHLRDLVEDVILDRPE,not soluble
4,SGFLEQRLGHCLRQMAEKGLEALLVTHLTNSYYLTGFSGTAATVLITAKRRVLITDSRYTLLAKASVEGFDIIESRTPLKVVAELLEADQIDCLGFEDQVSFSFYQAMQAELSGITLLAQSGFVEHLR,not soluble
5,MAARPKLHYPNGRGRMESVRWVLAAAGVEFDEEFLETKEQLYKLQDGNHLLFQQVPMVEIDGMKLVQTRSILHYIADKHNLFGKNLKERTLIDMYVEGTLDLLELLIMHPFLKPDDQQKEVVNMAQKAIIRYFPVFEKILRGHGQSFLVGNQLSLADVILLQTILALEEKIPNILSAFPFLQEYTVKLSNIPTIKRFLEPGSKKKPPPDEIYVRTVYNIFRP,soluble
6,MSNRKYFGTDGIRGRVGDAPITPDFVLKLGWAAGKVLARHGSRKIIIGKDTRISGYMLESALEAGLAAAGLSALFTGPMPTPAVAYLTRTFRAEAGIVISASHNPFYDNGIKFFSIDGTKLPDAVEEAIEAEMEKEISCVDSAELGKASRIVDAAGRYIEFCKATFPNELSLSELKIVVDCANGATYHIAPNVLRELGANVIAIGCEPNGVNINAEVGATDVRALQARVLAEKADLGIAFDGDGDRVIMVDHEGNKVDGDQIMYIIAREGLRQGQLRGGAVGTLMSNMGLELALKQLGIPFARAKVGDRYVLEKMQEKGWRIGAENSGHVILLDKTTTGDGIVAGLQVLAAMARNHMSLHDLCSGMKMFPQILVNVRYTAGSGDPLEHESVKAVTAEVEAALGNRGRVLLRKSGTEPLIRVMVEGEDEAQVTEFAHRIADAVKAV,not soluble
7,KPGAPWWKSAVFYQVYPRSFKDTNGDGIGDFKGLTEKLDYLKGLGIDAIWINPHYASPNTDNGYDISDYREVMKEYGTMEDFDRLMAELKKRGMRLMVDVVINHSSDQHEWFKSSRASKDNPYRDYYFWRDGKDGHEPNNYPSFFGGSAWEKDPVTGQYYLHYFGRQQPDLNWDTPKLREELYAMLRFWLDKGVSGMRFDTVATYSKTPGFPDLTPEQMKNFAEAYTQGPNLHRYLQEMHEKVFDHYDAVTAGEIFGAPLNQVPLFIDSRRKELDMAFTFDLIRYDRALDRWHTIPRTLADFRQTIDKVDAIAGEYGWNTFFLGNHDNPRAVSHFGDDRPQWREASAKALATVTLTQRGTPFIFQGDELGMTNYPFKTLQDFDDIEVKGFFQDYVETGKATAEELLTNVALTSRDNARTPFQWDDSANAGFTTGKPWLKVNPNYTEINAAREIGDPKSVYSFYRNLISIRHETPALSTGSYRDIDPSNADVYAYTRSQDGETYLVVVNFKAEPRSFTLPDGMHIAETLIESSSPAAPAAGAASLELQPWQSGIYKVK,soluble
8,MGGTSYLIVGNEGNILIDCPALDQTNLNFLRSHGGVRWLFLTHRGAIGRTAEIQQNYGCDILIQEQEAYLLPGLTVTTFTQEFAVTPTAKAIWTPGHSPGSSCLYYNHQGGVLFSGRHLLPNQKGEPVPLRTAKTFHWPRQIKSLQTILETLTPETLQYICPGANTGFLRGKRSIDTAYQRLASLDLKALLQTQPLEHHHHHH,not soluble
9,ALSGGFIKGFAHLGVIQALLEHDIKPDIISGVSAGALAGVFYADGNEPYRVLDYFSGHKFQDLTKLVIPKVGLFALGEFIDFLKSNLKAQKLEDLKLPLIITATDLDHGRSMHFHKGNIAERVAASCCMPVLFTPVKIGNTHYVDGGLLMNLPVSTIRNECEKVVAVNVSPLMAEKYKMNIVSIAMRSYHFMFRANTFPERDNCDLLIEPYNLEGYSNTELEKAEEIFEQGYNTASE,not soluble
10,MTQKRTLLKYGILSLALAAPLSACAFDSLTVIGDSLSDTGNNGRWTWDSGQNKLYDEQLAERYGLELSPSSNGGSNYAAGGATATPELNPQDNTADQVRQWLAKTGGKADHNGLYIHWVGGNDLAAAIAQPTMAQQIAGNSATSAAAQVGLLLDAGAGLVVVPNVPDISATPMLLEAVITAGLGAAAPPALKAALDALAEGATPDFASRQQAIRKALLAAAATVSSNPFIQQLLVEQLLAGYEAAAGQASALTDYYNQMEEKGLEQHGGNIARADINGLFKEILANPQAFGLTNTVGMACPPGVSASACSSAMPGFNASQDYLFADHLHPGPQVHTIIAQYIQSIIAAPVQATYLNQSVQSMAQGSRTTLDSRYQQLRQGENPVGSLGMFGGYSGGYQRYDNNEADGNGNHNNLTVGVDYQLNEQVLLGGLIAGSLDKQHPDDNYRYDARGFQAAVFSHLRAGQAWLDSDLHFLSAKFSNIQRSITLGALRRVEEGETNGRLWGARLTSGYDFVMVPWLTTGPMLQYAWDYSHVNGYSEKLNTSTSMRFGDQNAHSQVGSAGWRLDLRHSIIHSWAQINYRRQFGDDTYVANGGLKSTALTFSRDGKTQDKNWVDIAIGADFPLSATVSAFAGLSQTAGLSDGNQTRYNVGFSARF,not soluble
11,MSVSLLRGRTVRRVLSVLVVAGLLGAGATGCSNDAGAKTENTVDASPTPTNTPTDGEGDSEGAEEPVEDTPAEPEQRPVPEEPEAMKTGDKAGAIAAATFFVEVIEYDATQPDSRFFSKYAYEECGWCNEYKKTHEQQANSNFSLINTNINLEDIKTASFAGEGSVLWSVPINANVSSHYKSKKDDEVVETEHTLTGNMLVGYRNGQWLLVEGDLLVK,not soluble
12,KTLPRDEKEKQIADSKERLKSDTQKVKDAKNADAIKKAFEEGKVNIPQAHIPGDLNKDKEKLLAELKQKADDTEKAIDVDKT,not soluble
13,MSLKKSDATGGEVASAEPIAKIPAPAGKAWTETFSVTPDGGYLLGNPDAPIKLIEFGALSCSHCAEFSEKGFPKLRDEYIASGRVSYELRLFLLNALDMPAVLLATCGAPEAVIPLSEQFWAWQPNMFSNLQKDEAAFQQISNLPAEKRFAGIAQLGGLSEFFASRGIAAAQGATCLADTAKATRLATVNDQWGKEYDITGTPTFFLNGSKTGVATWAELEPMLQKAGAREGHHHHHH,soluble
14,MMRSHVITHFSMPNIDLHSHSTISDGMLSPSRLLAHAAVRGVNVLALTDHDDIAGLSEASRSAQQENITLIRGVEISVTWHGRTLHILGLGINPEHPPLTEGLKKIRDGRMDRARAIAAQLDKFGIHGSFEGASAQAGISRLIGRTHFARFLVSQGYAKNVKSVFKKYLVKGKPGHVSHVWVSLDEAIGWIRGSGGQAVIAHPARYKLSNDLLEQLLCEFRELGGAGIEVVSSSHTPEQTRQFAALATRMNLYASCGSDYHGPGESYFDLGRLPALPPECTPIWNEWEIPDYAETGATTLNEQSEQTGLQSPGKSV,not soluble
15,MNEPPVSVVLPTYDRPEILRNAVKSVQEQTYRHIELVVVDDHSPTPAADTLSPLSFDELTVEIIRHEENRGANEARNTGIRESTGEYIAFLDDDDDWAPSKIEKQVAVFREASPEVGVVYTGSEYVYDDYVRTVVFSLEGDVTEEMLRGRSLGEFTTLMVRRDVAMAAGLPDTDFPSWQDRDWLLRLSCHCKFKTVPEALTTRRRKTGEDSISDNFEEKRDISYPLFIEKHRDLAAEYGWRCERAFMAATTESLGQEALKNGYYADAKKYFLKALRYHPLDRSRLVYALVAYGGKYTYGAAHTLASLLHRVRTDTIHKLEHHHHHH,not soluble
16,MGHHHHHHSHVFDRPDLGDQAILVSLDFGDADYQESVAECAELVRGSKVEILGMVQGKRQRPDAALFAGKGKVEEIASMVRATGANVVIFNHALSPGQERNLERALQCRVIDRNSLILDIFAQRARSHEGKLQVELAQLSHLSTRLVRGWTHLERQKGGVGLRGPGETQLETDRRLLGIRVKALKDRLAQVQKQRNTQRRSRNRAGVSSVSIVGYTNAGKSTLFNALTKANIYAADQLFATLDTTSRKLFLNHDCSVVLSDTVGFIRDLPHTLVAAFRATLEETVQANLLLHVVDCANETRDAQIDEVNKVLAEIDADGIPQLIVWNKGDLRELPPEIERDEDGVAVAVRVSALKGEGLELLREAIAERVQPFANNHKEPYEHVAE,soluble
17,MIKGIGLDMIDLERVKQVVEKNPRFIERVLTEKEIKQFEKYEGNRKIEFLAGRFAAKEAYAKANGTGFGKHLSFTDVEILQVEDGRPHVTLPVKSGENVFVSITHTARSAAAQVIIEI,not soluble
18,MRTVSHPTPLRRAPVQRRSAERLTRILDACADLLDEVGYDALSTRAVALRADVPIGSVYRFFGNKRQMADALAQRNLERYAERVTERLTEAGDGGWRGALDTVLDEYLAMKRTAPGFSLIDFGNQIPVGDRHAVPNHRVAERLTELLSGYLGRRPDDDLRRVFLVAVETADTLVQLAFRVAPDGDEKIIEEARELLRAYLGRVLD,soluble
19,GEALDYKTPLLKALAAVDKAATEVCQLFDKNVTRVFTNLGWEQEYFLVDSSLYNARPDLCLTGRTLMGHSSAKDQQLEDHYFGSIPPRVTAFMKELEIECHKLGIPAKTRHNEVAPNQFELAPIFENCNLANDHNQLVMDLMKRIARKHHFNVLLHEKPYSSVNGSGKHNNWSLCTDTGINLFAPGKNPKGNMLFLTFLVNVLMMVYKNQDLLRASIMSASNSYRLGANEAPPAILSCFLGSQLSATLDEIVRQVGNEKMTPEEKTTLKLGIGRIPEILLDTTDRNRTSPFAFTGNRFEFRAAGSSSNCAAAMIAINAAMANQLNEFRASVEKLMEEGVGKDEAIFRLLKETIIASEAIRFEGDGYSEEWRQEAARRGLTNICHVPEALMHYVDNQSKSVLIGERIFNETELNSRLEVELEKYTMKVQIEGRVLGDLAINH,not soluble
